T1: TNF-beta (human, UniProt P01374 35-205)
T1 construct: also called TNFβ; Tumour Necrosis Factor-beta
T1 sequence (looked up): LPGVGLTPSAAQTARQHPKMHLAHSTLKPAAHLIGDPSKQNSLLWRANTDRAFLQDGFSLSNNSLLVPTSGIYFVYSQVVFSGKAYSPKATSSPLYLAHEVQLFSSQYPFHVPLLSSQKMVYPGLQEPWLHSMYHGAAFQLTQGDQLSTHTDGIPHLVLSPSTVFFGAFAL

T2: Fas ligand (human, UniProt P48023 134-281, limits assumed)
T2 sequence (looked up): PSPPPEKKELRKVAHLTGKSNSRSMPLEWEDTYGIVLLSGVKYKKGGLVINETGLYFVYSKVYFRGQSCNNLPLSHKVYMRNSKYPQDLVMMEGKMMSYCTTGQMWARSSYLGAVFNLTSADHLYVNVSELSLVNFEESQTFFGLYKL


What was measured:
TRAIL = biological target: T3, TRAIL (human, UniProt P50591 114-281); experiment: phage ELISA
T3 construct: also called TNF-related apoptosis inducing ligand

[1] = biological target: T4, membrane-bound B Lymphocyte Stimulator on U937 plasma membrane preparations (human, UniProt Q9Y275 1-285); experiment: phage ELISA
T4 construct: Natural protein in plasma membrane fractions of the human cell line U937 coated on ELISA plates; also called U937 plasma membranes; U937 membranes

TNF-alpha = biological target: T5, TNF-alpha (human, UniProt P01375 77-233); experiment: phage ELISA
T5 construct: also called TNFα; TNF-α

TNF-beta = biological target: T1, TNF-beta; experiment: phage ELISA
Fas ligand = biological target: T2, Fas ligand; experiment: phage ELISA
[2] = biological target: T6, B Lymphocyte Stimulator, soluble form (human) (human, UniProt Q9Y275 134-285, biotinylated with NHS-biotin where used as biotinylated B Lymphocyte Stimulator); experiment: phage competition ELISA
T6 construct: Coated on plastic, captured on streptavidin plates, amine-coupled to a CM5 chip or free in solution, depending on the assay; also called BLyS; immobilized B Lymphocyte Stimulator

T5 sequence (P01375 77-233 limits assumed): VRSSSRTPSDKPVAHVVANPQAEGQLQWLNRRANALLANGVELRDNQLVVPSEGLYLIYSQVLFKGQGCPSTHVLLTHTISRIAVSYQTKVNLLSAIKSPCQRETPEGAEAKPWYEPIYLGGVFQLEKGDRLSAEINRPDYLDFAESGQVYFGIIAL
T3 sequence (P50591 114-281 limits assumed): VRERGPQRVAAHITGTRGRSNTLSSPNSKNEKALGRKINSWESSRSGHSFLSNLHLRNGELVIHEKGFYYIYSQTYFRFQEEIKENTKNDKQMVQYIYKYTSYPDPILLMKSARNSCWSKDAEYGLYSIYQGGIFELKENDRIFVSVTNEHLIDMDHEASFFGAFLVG

Binder | binding result (TRAIL) | binding result [1] | binding result (TNF-alpha) | binding result (TNF-beta) | binding result (Fas ligand) | binding result [2]
I016E05 (scFv) scFv: QVQLQQSGAEVKKPGASVKVSCKASGYTFTKYTMHWVRQAPGQGPEWMGWINGGSGDTKYSRKFQGRVTITKDTSASAAYMELSSLGSEDTALYYCARATYDPLTGYSFDGFDIWGKGTMVTVSSGGGGSGGGGSGGGGSQSALTQPASVSGSPGQSITISCTGTSSDVGGYNYVSWYQQHPGKAPKLMIYEGSKRPSGVSNRFSGSKSGNTASLTISGLQAEDEADYYCSSYTTRSTRVFGGGTKLTVLG | no binding | binds | no binding | no binding | no binding | binds
I018H09 (scFv) scFv: QVQLQQSGAEVKKPGASVKVSCKASGYTFTKYTMHWVRQAPGQGPEWMGWINGGSGDTKYSRKFQGRVTITKDTSASATYMELSSLGSEDTALYYCARATYDPLTGYSFDGFDIWGKGTMVTVSSGGGGSGGGGSGGGGSQSVLTQPASVSGSPGQSITISCTGTSSDVGGYNYVSWYQQHPGKAPKLMIYEGSKRPSGVSNRFSGSKSGNTASLTISGLQAEDEADYYCSSYTTRSTRVFGGGTKLTVLG | no binding | binds | no binding | no binding | no binding | binds
I018H08 (scFv, also called 1018H08) scFv: QVQLQQSGAEVKKPGASVNVSCKASGYTFTKYTMHWVRQAPGQGPEWMGWINGGSGDTKYSRKFQGRVTITKDTSASAAYMELSSLGSEDTALYYCARATYDPLTGYSFDGFDIWGQGTMVTVSSGGGGSGGGGSGGGGSQSVLTQPASVSGSPGQSITISCTGTSSDVGGYNYVSWYQQHPGKAPKLMIYEGSKRPSGVSNRFSGSKSGNTASLTISGLQAEDEADYYCSSYTTRSTRVFGGGTKLTILG | no binding | binds | no binding | no binding | no binding | binds
I008B01 (scFv) scFv: QVQLVQSGAEVMKPGASVKVSCKASGYNFNNYAMQWVRQAPGQRLEWMGWIVPGNGKTKYSQKFQDRVTIARDTSASTVYMELSSLTSEDTAMYYCARATYDPLTGYSFDGFDIWGQGTTVTVSSGGGGSGGGGSGGGGSQSVLTQPASVSGSPGQSITISCTGTSSDVGGYNYVSWYQQHPGKAPKLMIYEGSKRPSGVSNRFSGSKSGNTASLTISGLQAEDEADYYCSSYTTRSTRVFGGGTKLTVLG | no binding | binds | no binding | no binding | no binding | binds
I061E07 (scFv) scFv: QVQLQQSGAEVKKTGASVKVSCKASGYIFADYYVHWVRQAAGQGLEWMGWINPNTGSTKYAQKFQDRVTMTRDTSIKTVYMELRRLRSDDTALYYCARATYDPLTGYSFDGFDIWGKGTMVTVSSGGGGSGGGGSGGGGSQSVLTQPPSASGTPGQRVTISCSGSSSNIGSNTVNWYQRLPGAAPQLLIYNNDQRPSGIPDRFSGSKSGTSGSLVISGLQSEDEADYYCASWDDSLNGRVFGGGTKLTVLG | no binding | binds | no binding | no binding | no binding | binds
I001C09 (scFv) scFv: GVQLVQSGPEVKKPGASVKVSCTASGYTFTSYGVSWVRQAPGQGLEWIGWISAHNGQTKYAEKFQGRVTMTRNTSISTAYMELSSLRSEDTAVYYCARDGSYDILTGYYIDNYMDVWGKGTMVTVSSGGGGSGGGGSGGGGSSELTQDPAVSVALGQTVRITCQGDSLRSYYTNWFQQKPGQAPLLVVYAKNKRPSGIPDRFSGSSSGNTASLTITGAQAEDEADYYCHSRDSSGNHVLFGGGTKLTVLG | no binding | binds | – | no binding | no binding | binds
I018D07 (scFv) scFv: GVQLVQSGPEVKKPGASVIVSCTASGYTFTSYGVSWVRQAPGQGLEWIGWISAHNGQTKYAEKFQGRVTMTRNTSISTAYMELSSLRSEDTAVYYCARDGSYDILTGYYIDNYMDVWGKGTMVTVSSGGGGSGGGGSGGGGSSELTQDPAVSVALGQTVRITCQGDSLRSYYTNWFQQKPGQAPLLVVYAKNKRPSGIPDRFSGSSSGNTASLTITGAQAEDEADYYCHSRDSSGNHVLFGGGTKLTVLG | no binding | binds | – | no binding | no binding | binds
I029D07 (scFv) scFv: QVQLQQSGAEVKKPGSSVKVSCKASGYTFTKYTMHWVRQAPGQGPEWMGWINGGSGDTKYSRKFQGRVTITKDTSASAAYMELSSLGSEDTALYYCARATYDPLTGYSFDGFDIWGQGTLVTVSSGGGGSGGGGSGGGGSQSVLTQPASVSGSPGQSITISCTGTSSDVGGYNYVSWYQQHPGKAPKLMIYDVSKRPSGVPDRFSGSKSGNTASLTISGLQAEDEGDYYCSSYAGPSRVFGGGTKVEIKR | no binding | binds | no binding | no binding | no binding | binds
I022E02 (scFv) scFv: QVQLVQSGAEVKKPGASVMVSCKASGYTFSTYAVHWVRQAPGQGLEWMGRINAGNGYTKYSQKFQGRVTITKDTSASAAYMELSSLGSEDTALYYCARATYDPLTGYSFDGLDIWGKGTMVTVSSGGGGSGGGGSGGGGSQSVLTQPASVSGSPGQSITISCTGTSSDVGGYNYVSWYQQHPGKAPKLMIYEGSKRPSGVSNRFSGSKSGNTASLTISGLQAEDEADYYCSSYTTRSTRVFGGGTKLTVLG | no binding | binds | no binding | no binding | no binding | binds
I008C02 (scFv) scFv: AVQLQESGPGLVKPSETLSLTCSVSGASMTTNKFYWSWIRQPPGKGLEWIGNINYSKSTNYNPSLKSRITISVDTSKNQLSLKLNSVTAADTAVYYCARHVRDYDILTGYYRGHYFDYWGQGTMVTVSSGGGGSGGGGSGGGGSQSVLTQPASVSGSPGQSITISCTGTSSDVGGYNYVSWYQQHPGKAPKLMIYEGSKRPSGVSNRFSGSKSGNTASLTISGLQAEDEADYYCSSYTTRSTRVFGGGTKLTVLG | no binding | binds | no binding | no binding | no binding | binds
I018C02 (scFv) scFv: QVQLQQSGSELKKPGASVIVSCKVSGYSLTKMSMHWVRQSPGEGLEWVGGIDPETRQPVYAQKFQGRVTITKDTSASAAYMELSSLGSEDTALYYCARATYDPLTGYSFDGFDIWGQGTLVTVSSGGGGSGGGGSGGGGSQSVLTQPASVSGSPGQSITISCTGTSSDVGGYNYVSWYQQHPGKAPKLMIYEGSKRPSGVSNRFSGSKSGNTASLTISGLQAEDEADYYCSSYTTRSTRVFGGGTKLTVLG | no binding | binds | no binding | no binding | no binding | binds
I003F12S (scFv) scFv: QVQLLQSAAELKKPGQSLKISCKGSGFTFTTYWIGWVRQLPGKGLEWMGIIYPGDSHTTYSPSFEGHVNISVDKSINTAYLQWSSLKASDTAMYYCARHDDDVLTGYYFESWGQGTMVTVSSGGGGSGGGGSGGGGSQSVLTQPASVSGSPGQSITISCTGTSSDVGGYNYVSWYQQHPGKAPKLMIYEGSKRPSGVSNRFSGSKSGNTASLTISGLQAEDEADYYCSSYTTRSTRVFGGGTKLTVLG | no binding | – | no binding | no binding | no binding | –
I006D07 (scFv) scFv: EVQLVESGGGVVQPGGSLRLSCAASGFTVNSYAMHWVRQAPGKGLQWVAVIPYDGSKKYYADSVKGRFTVSRDNSKNTLYLQMNSLRAEDTAVYYCARSHYDILTGLNYWYFDLWGRGTLVTVSSGGGGSGGGGSGGGGSSELTQDPAVSVALGQTVRITCQGDSLRSYYASWYQQKPGQAPVLVIYGKNNRPSGIPDRFSGSSSGNTASLTITGAQAEDEADYYCNSRGSSGNHVVFGGGTKLTVLG | no binding | binds | no binding | no binding | no binding | binds
